Results on five molecules are retold here after patent publication US20190167710A1 (UNIVERSITY OF PITTSBURGH OF THE COMMONWEALTH SYSTEM OF …, published 2019).

Test [1] concerns the target T1, anaplastic lymphoma kinase (ALK), human, endogenous in THP1 cells (human, UniProt Q9UM73 19-1620, limits assumed).
T1 construct: Endogenous protein in lysates of human THP1 monocytes; also called ALK Receptor Tyrosine Kinase
Briefly: co-immunoprecipitation from THP1 cells after 3'3'-cGAMP or c-di-AMP (10 µg/ml, 16 h). How it is done:
(§1) Concentrations of proteins in the supernatant were determined by bicinchoninic acid assay. […] Following incubation, agarose/sepharose beads were washed extensively with PBS and proteins were eluted by boiling in 2× sodium dodecyl sulfate (SDS) sample buffer before SDS-PAGE electrophoresis.
(§2) To elucidate the possible role of ALK in the regulation of the STING signaling pathway, we tested whether ALK promotes the phosphorylation of core components of the STING pathway (STING, TBK1, and cGAS) through protein-protein interaction using co-immunoprecipitation techniques.

The target of test [2] is T2, anaplastic lymphoma kinase (ALK), mouse, endogenous in iBMDMs and RAW264.7 cells (mouse, UniProt P97793 19-1621, limits assumed).
T2 construct: Endogenous protein in lysates of mouse macrophage lines (co-immunoprecipitation); also called ALK Receptor Tyrosine Kinase
Description: co-immunoprecipitation from iBMDMs and RAW264.7 cells after 3'3'-cGAMP or c-di-AMP (10 µg/ml, 16 h). The procedure:
as §1, §2

T2 sequence (P97793 19-1621 limits assumed): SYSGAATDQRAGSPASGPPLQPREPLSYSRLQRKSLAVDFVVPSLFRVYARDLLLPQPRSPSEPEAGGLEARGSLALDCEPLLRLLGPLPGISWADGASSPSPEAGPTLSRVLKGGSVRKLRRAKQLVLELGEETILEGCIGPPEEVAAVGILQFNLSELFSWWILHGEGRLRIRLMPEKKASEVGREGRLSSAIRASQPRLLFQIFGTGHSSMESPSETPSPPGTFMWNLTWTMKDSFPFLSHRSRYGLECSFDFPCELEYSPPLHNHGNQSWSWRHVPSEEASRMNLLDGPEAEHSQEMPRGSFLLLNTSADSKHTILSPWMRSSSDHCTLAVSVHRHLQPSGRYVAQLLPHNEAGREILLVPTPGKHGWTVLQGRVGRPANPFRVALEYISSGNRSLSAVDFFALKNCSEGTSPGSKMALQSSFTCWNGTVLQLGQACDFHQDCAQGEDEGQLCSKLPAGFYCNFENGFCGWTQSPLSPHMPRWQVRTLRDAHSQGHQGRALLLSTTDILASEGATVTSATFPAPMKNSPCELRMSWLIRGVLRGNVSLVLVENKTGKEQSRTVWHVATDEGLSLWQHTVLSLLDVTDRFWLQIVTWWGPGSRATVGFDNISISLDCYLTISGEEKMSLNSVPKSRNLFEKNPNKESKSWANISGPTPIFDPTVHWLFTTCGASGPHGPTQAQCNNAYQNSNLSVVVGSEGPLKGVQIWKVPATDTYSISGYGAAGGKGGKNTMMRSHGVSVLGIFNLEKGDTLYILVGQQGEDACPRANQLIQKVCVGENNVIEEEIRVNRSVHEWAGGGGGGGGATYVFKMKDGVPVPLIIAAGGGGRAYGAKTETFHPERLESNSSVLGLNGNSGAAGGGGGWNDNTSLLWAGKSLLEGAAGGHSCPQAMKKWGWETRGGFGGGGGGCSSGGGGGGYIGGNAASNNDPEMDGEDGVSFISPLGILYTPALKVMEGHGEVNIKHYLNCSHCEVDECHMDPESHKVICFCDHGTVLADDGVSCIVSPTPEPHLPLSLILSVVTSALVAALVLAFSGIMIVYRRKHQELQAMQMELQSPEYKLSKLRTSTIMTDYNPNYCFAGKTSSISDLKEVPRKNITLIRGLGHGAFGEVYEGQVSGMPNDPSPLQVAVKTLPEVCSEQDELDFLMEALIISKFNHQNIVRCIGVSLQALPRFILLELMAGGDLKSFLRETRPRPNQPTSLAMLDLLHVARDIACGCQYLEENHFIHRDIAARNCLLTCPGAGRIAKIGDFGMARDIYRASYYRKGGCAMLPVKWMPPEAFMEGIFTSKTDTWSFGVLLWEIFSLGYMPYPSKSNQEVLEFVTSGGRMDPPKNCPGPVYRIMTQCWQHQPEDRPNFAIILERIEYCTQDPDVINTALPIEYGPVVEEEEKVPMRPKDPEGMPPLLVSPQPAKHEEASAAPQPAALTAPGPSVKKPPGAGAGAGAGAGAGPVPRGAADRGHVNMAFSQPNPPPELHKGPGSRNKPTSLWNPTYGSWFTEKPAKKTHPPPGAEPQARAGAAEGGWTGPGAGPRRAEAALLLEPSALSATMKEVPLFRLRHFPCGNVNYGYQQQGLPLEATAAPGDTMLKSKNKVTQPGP
T1 sequence (Q9UM73 19-1620 limits assumed): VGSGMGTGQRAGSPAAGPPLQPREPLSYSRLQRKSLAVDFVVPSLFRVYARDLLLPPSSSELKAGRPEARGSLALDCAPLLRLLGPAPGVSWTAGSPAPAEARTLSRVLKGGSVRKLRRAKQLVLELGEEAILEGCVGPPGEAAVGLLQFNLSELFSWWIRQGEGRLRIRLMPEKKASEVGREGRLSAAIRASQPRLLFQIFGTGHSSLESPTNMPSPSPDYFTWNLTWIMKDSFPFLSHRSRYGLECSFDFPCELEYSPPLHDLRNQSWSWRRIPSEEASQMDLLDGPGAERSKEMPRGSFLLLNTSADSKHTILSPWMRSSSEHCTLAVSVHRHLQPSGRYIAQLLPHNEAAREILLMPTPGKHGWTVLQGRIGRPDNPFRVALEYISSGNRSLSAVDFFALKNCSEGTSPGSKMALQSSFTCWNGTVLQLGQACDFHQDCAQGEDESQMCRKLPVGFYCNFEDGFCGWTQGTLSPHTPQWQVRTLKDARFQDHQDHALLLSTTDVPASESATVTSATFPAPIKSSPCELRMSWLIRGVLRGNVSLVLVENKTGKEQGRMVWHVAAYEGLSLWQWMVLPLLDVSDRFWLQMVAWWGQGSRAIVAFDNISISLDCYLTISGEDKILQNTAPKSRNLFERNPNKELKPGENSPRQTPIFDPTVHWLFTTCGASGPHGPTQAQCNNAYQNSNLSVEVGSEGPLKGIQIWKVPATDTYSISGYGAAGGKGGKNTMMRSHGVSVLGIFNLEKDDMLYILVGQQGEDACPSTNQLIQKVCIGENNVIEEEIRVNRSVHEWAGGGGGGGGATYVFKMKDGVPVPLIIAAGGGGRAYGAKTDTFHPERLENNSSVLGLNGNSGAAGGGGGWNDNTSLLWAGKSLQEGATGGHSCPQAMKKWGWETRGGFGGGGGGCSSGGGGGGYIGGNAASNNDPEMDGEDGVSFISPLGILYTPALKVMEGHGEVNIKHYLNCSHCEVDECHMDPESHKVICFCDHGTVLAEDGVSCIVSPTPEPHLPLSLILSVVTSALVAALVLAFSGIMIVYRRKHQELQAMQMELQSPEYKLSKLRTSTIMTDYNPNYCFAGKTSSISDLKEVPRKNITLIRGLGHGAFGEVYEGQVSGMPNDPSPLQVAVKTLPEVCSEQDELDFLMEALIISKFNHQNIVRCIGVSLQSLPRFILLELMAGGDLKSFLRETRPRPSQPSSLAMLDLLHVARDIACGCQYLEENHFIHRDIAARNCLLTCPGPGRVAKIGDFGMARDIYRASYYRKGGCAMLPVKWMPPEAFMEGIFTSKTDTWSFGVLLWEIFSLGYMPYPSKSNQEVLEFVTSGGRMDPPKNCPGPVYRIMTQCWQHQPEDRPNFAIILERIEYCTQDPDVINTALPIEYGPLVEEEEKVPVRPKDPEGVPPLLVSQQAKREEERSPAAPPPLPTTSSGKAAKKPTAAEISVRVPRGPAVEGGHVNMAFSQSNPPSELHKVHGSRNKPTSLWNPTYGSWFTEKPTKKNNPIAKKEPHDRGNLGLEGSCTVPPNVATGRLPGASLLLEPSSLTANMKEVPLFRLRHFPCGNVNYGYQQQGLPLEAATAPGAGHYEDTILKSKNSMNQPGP

B1: cyclic-guanosine monophosphate-adenosine monophosphate (cGAMP) synthase (cGAS), human, endogenous in THP1 cells (enzyme, UniProt Q8N884 1-522, looked up)
chain: MQPWHGKAMQRASEAGATAPKASARNARGAPMDPTESPAAPEAALPKAGKFGPARKSGSRQKKSAPDTQERPPVRATGARAKKAPQRAQDTQPSDATSAPGAEGLEPPAAREPALSRAGSCRQRGARCSTKPRPPPGPWDVPSPGLPVSAPILVRRDAAPGASKLRAVLEKLKLSRDDISTAAGMVKGVVDHLLLRLKCDSAFRGVGLLNTGSYYEHVKISAPNEFDVMFKLEVPRIQLEEYSNTRAYYFVKFKRNPKENPLSQFLEGEILSASKMLSKFRKIIKEEINDIKDTDVIMKRKRGGSPAVTLLISEKISVDITLALESKSSWPASTQEGLRIQNWLSAKVRKQLRLKPFYLVPKHAKEGNGFQEETWRLSFSHIEKEILNNHGKSKTCCENKEEKCCRKDCLKLMKYLLEQLKERFKDKKHLDKFSSYHVKTAFFHVCTQNPQDSQWDRKDLGLCFDNCVTYFLQCLRTEKLENYFIPEFNLFSSNLIDKRSKEFLTKQIEYERNNEFPVFDEF
notes: Endogenous protein in cell lysates
B1: the binding result in test [1] is “no binding”.

B2: stimulator of interferon genes (STING), mouse, endogenous in iBMDMs and RAW264.7 cells (other, UniProt Q3TBT3 1-378, looked up)
chain: MPYSNLHPAIPRPRGHRSKYVALIFLVASLMILWVAKDPPNHTLKYLALHLASHELGLLLKNLCCLAEELCHVQSRYQGSYWKAVRACLGCPIHCMAMILLSSYFYFLQNTADIYLSWMFGLLVLYKSLSMLLGLQSLTPAEVSAVCEEKKLNVAHGLAWSYYIGYLRLILPGLQARIRMFNQLHNNMLSGAGSRRLYILFPLDCGVPDNLSVVDPNIRFRDMLPQQNIDRAGIKNRVYSNSVYEILENGQPAGVCILEYATPLQTLFAMSQDAKAGFSREDRLEQAKLFCRTLEEILEDVPESRNNCRLIVYQEPTDGNSFSLSQEVLRHIRQEEKEEVTMNAPMTSVAPPPSVLSQEPRLLISGMDQPLPLRTDLI
notes: as for B1
With B2, the binding result in test [2] was “no binding”.

B3: TANK-binding kinase 1 (TBK1), human, endogenous in THP1 cells (enzyme, UniProt Q9UHD2 1-729, looked up)
chain: MQSTSNHLWLLSDILGQGATANVFRGRHKKTGDLFAIKVFNNISFLRPVDVQMREFEVLKKLNHKNIVKLFAIEEETTTRHKVLIMEFCPCGSLYTVLEEPSNAYGLPESEFLIVLRDVVGGMNHLRENGIVHRDIKPGNIMRVIGEDGQSVYKLTDFGAARELEDDEQFVSLYGTEEYLHPDMYERAVLRKDHQKKYGATVDLWSIGVTFYHAATGSLPFRPFEGPRRNKEVMYKIITGKPSGAISGVQKAENGPIDWSGDMPVSCSLSRGLQVLLTPVLANILEADQEKCWGFDQFFAETSDILHRMVIHVFSLQQMTAHKIYIHSYNTATIFHELVYKQTKIISSNQELIYEGRRLVLEPGRLAQHFPKTTEENPIFVVSREPLNTIGLIYEKISLPKVHPRYDLDGDASMAKAITGVVCYACRIASTLLLYQELMRKGIRWLIELIKDDYNETVHKKTEVVITLDFCIRNIEKTVKVYEKLMKINLEAAELGEISDIHTKLLRLSSSQGTIETSLQDIDSRLSPGGSLADAWAHQEGTHPKDRNVEKLQVLLNCMTEIYYQFKKDKAERRLAYNEEQIHKFDKQKLYYHATKAMTHFTDECVKKYEAFLNKSEEWIRKMLHLRKQLLSLTNQCFDIEEEVSKYQEYTNELQETLPQKMFTASSGIKHTMTPIYPSSNTLVEMTLGMKKLKEEMEGVVKELAENNHILERFGSLTMDGGLRNVDCL
notes: Endogenous protein in cell lysates; also called TBK1/NAK
For B3, the binding result in test [1] is on record as “no binding”.

B4: TANK-binding kinase 1 (TBK1), mouse, endogenous in iBMDMs and RAW264.7 cells (enzyme, UniProt Q9WUN2 1-729, looked up)
chain: MQSTSNHLWLLSDILGQGATANVFRGRHKKTGDLYAVKVFNNISFLRPVDVQMREFEVLKKLNHKNIVKLFAIEEETTTRHKVLIMEFCPCGSLYTVLEEPSNAYGLPESEFLIVLRDVVGGMNHLRENGIVHRDIKPGNIMRVIGEDGQSVYKLTDFGAARELEDDEQFVSLYGTEEYLHPDMYERAVLRKDHQKKYGATVDLWSVGVTFYHAATGSLPFRPFEGPRRNKEVMYKIITGKPSGAISGVQKAENGPIDWSGDMPLSCSLSQGLQALLTPVLANILEADQEKCWGFDQFFAETSDVLHRMVIHVFSLQHMTAHKIYIHSYNTAAVFHELVYKQTKIVSSNQELIYEGRRLVLELGRLAQHFPKTTEENPIFVTSREQLNTVGLRYEKISLPKIHPRYDLDGDASMAKAVTGVVCYACRTASTLLLYQELMRKGVRWLVELVKDDYNETVHKKTEVVITLDFCIRNIEKTVKVYEKLMKVNLEAAELGEISDIHTKLLRLSSSQGTIESSLQDISSRLSPGGLLADTWAHQEGTHPRDRNVEKLQVLLNCITEIYYQFKKDKAERRLAYNEEQIHKFDKQKLYYHATKAMSHFSEECVRKYEAFKDKSEEWMRKMLHLRKQLLSLTNQCFDIEEEVSKYQDYTNELQETLPQKMLAASGGVKHAMAPIYPSSNTLVEMTLGMKKLKEEMEGVVKELAENNHILERFGSLTMDGGLRNVDCL
notes: as for B3
Turning to B4, the binding result in test [2] was “no binding”.

B5: TIR-domain-containing adapter-inducing interferon-β (TRIF), mouse, endogenous in iBMDMs and RAW264.7 cells (other, UniProt Q80UF7 1-732, looked up)
chain: MDNPGPSLRGAFGILGALERDRLTHLKHKLGSLCSGSQESKLLHAMVLLALGQDTEARVSLESLKMNTVAQLVAHQWADMETTEGPEEPPDLSWTVARLYHLLAEENLCPASTRDMAYQVALRDFASQGDHQLGQLQNEAWDRCSSDIKGDPSGFQPLHSHQGSLQPPSASPAVTRSQPRPIDTPDWSWGHTLHSTNSTASLASHLEISQSPTLAFLSSHHGTHGPSKLCNTPLDTQEPQLVPEGCQEPEEISWPPSVETSVSLGLPHEISVPEVSPEEASPILPDALAAPDTSVHCPIECTELSTNSRSPLTSTTESVGKQWPITSQRSPQVPVGDDSLQNTTSSSPPAQPPSLQASPKLPPSPLSSASSPSSYPAPPTSTSPVLDHSETSDQKFYNFVVIHARADEQVALRIREKLETLGVPDGATFCEEFQVPGRGELHCLQDAIDHSGFTILLLTASFDCSLSLHQINHALMNSLTQSGRQDCVIPLLPLECSQAQLSPDTTRLLHSIVWLDEHSPIFARKVANTFKTQKLQAQRVRWKKAQEARTLKEQSIQLEAERQNVAAISAAYTAYVHSYRAWQAEMNKLGVAFGKNLSLGTPTPSWPGCPQPIPSHPQGGTPVFPYSPQPPSFPQPPCFPQPPSFPQPPSFPLPPVSSPQSQSFPSASSPAPQTPGPQPLIIHHAQMVQLGVNNHMWGHTGAQSSDDKTECSENPCMGPLTDQGEPLLETPE
notes: Endogenous protein in cell lysates; also called TICAM-1
Turning to B5, the binding result in test [2] is given as “no binding”.
